{"source": "paper PMC3261159", "biological_target": "14-3-3ζ (UniProt P63104)", "assay": "anti-HA co-IP, Myc Western blot", "details": "reference: wild-type Myc-Stat3 (688–770); sites S727", "data": [{"substance": "Stat3 C-terminal region, 688-770 (from UniProt P40763) S727A", "values": [{"measurement": "binding against the reference", "result": "lost"}]}]}
